{"source": "patent US20140037708A1", "about": "“COMPOSITION FOR SPATIO AND/OR TEMPORAL RELEASE OF BIOACTIVE MATERIAL” (The Regents of the University of Colorado, a body corporate, priority 2012, published 2014)", "experiment": "Double-sided release test of fluorescent molecules from electrospun scaffolds in custom-made diffusion chambers", "format": "physicochemical", "procedure": "For molecule release characterizations, the circular samples with 24 mm in diameter were cut from PCL-PLGAac and PCL-PLGAes scaffolds loaded with fluorescent dye or fluorescently-labeled albumin. For each experimental condition, 3 samples were used for analyses. Scaffold samples were placed in a custom-made diffusion-test system in which a sample was sandwiched between two reservoir chambers. Each side of the electrospun scaffolds thus faced a different reservoir filled with 1 ml of buffer solution. The reservoirs used SecureSeal hybridization chambers (Grace Biolabs, Bend, Oreg.) which tightly sealed the surface. Each reservoir had small holes for sampling and changing solutions. The holes were covered with silicone sealing tap during experiments to prevent evaporation. Thus, the molecule movements between the reservoirs could only be through the pores of the electrospun materials. The release tests were performed at 37° C. Samples of buffer solutions in both reservoirs were collected every day during the first 16 days, and subsequently once a week for scaffolds loaded with fluorescent albumins. A shorter release experiment was performed in case of electrospun scaffolds loaded with Rh123. After samples were taken, the reservoir chambers were rapidly rinsed with DI water and refilled with fresh phosphate buffer at 37° C. […] The geometry and porosity of the molecule-releasing scaffolds kept constant for all the experimental samples. For the designs with multiple molecules, as various fluorophores could be simultaneously released by the samples, the possibility of the overlap of the fluorophore emission spectra was examined; we could find no overlaps in the interested spectrum ranges. […] For each type of molecule, the efficiency of separation between Side A and Side B, Smolecule—A-B, was defined as the percentage of the molecule released on Side A over the total amount of the molecule released on Sides A and B during the entire experimental duration.\nTo assess the potential use of PCL-PLGAac and PCL-PLGAes materials for spatially controlled release of active molecules, release experiments were performed using Rh123. PCL and PLGA/Rh123 solutions were electrospun to prepare scaffolds following the pattern described in FIG. 1. Release studies were carried out in custom-made diffusion chambers illustrated in FIG. 7a. The two sealed reservoirs filled with phosphate buffer solution were placed on the opposite sides of the electrospun scaffolds. The PCL side of the scaffold was set to face the buffer reservoir chamber on Side “A”; the Rh123-impregnated PLGA side was placed in contact with the buffer reservoir on Side “B”. […] The separation efficiency of Rh123 between the two surfaces (SRh123—B-A) of the PCL-PLGAac scaffolds was 82±5% during the 9-day release experiment. […] In addition, after day 3, the molecule concentration measured on the PCL side exceeded that on the PLGAes side.", "data": [{"substance": "fluorescein isothiocyanate conjugate bovine serum albumin [AlbF]", "values": [{"measurement": "separation efficiency (release of two proteins to one side)", "setting": "PCL-PLGAac composite scaffold, AlbF in inner PLGAac fibers, AlbT in outer PLGAac fibers (FIG. 10a)", "result": "87±5", "unit": "%"}, {"measurement": "separation efficiency between side B and side A (sequential release scaffold)", "setting": "PCL/PLGA scaffold with dual PLGA gradient patterns: AlbF-loaded PLGA in the middle, AlbT-loaded PLGA close to side B (FIG. 11a)", "result": "0.92±0.03"}, {"measurement": "separation efficiency of AlbF between Side A and Side B (SAlbF A-B)", "setting": "PLGAac-PCL-PLGAac composite scaffold, release to opposite sides (FIG. 12)", "result": "91±4", "unit": "%"}, {"measurement": "initial release rate on Side B compared to AlbT", "setting": "dual-protein PCL-PLGAac scaffold, first 10 days, cumulative release normalized to total delivered protein", "result": "slower rate"}, {"measurement": "day on which daily net release to side B peaked", "setting": "sequential release scaffold (FIG. 11), first 12 days", "result": 5, "unit": "days"}]}]}
